Square brackets hold non-standard residues; d marks the D form. Ends that are not written are not given here. pS = N[C@@H](COP(=O)(O)O)C(=O)O
T1: 14-3-3 protein zeta (14-3-3ζ) (UniProt P63104 1-245)
T1 chain: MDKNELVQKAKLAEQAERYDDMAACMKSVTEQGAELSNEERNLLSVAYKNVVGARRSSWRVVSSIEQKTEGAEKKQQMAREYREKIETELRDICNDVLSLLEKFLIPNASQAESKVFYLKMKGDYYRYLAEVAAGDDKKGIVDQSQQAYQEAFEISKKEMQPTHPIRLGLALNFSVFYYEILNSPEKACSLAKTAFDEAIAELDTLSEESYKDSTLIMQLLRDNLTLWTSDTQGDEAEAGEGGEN


Biological target: T1, 14-3-3 protein zeta (14-3-3ζ)
Experiment: FP

Kd | Binder
0.945 µM | SRTP[pS]LPTPPTREGGGSGGGSGGGVTSKCG[pS]LGNIHHK (also: fluorescein (FITC) label, position not given here) [Fluorescein (FITC)-labelled bi-phospho Tau peptide pS2 (Tau^210–222-GGGSGGGSGGG-Tau^318–331)]
> 100 µM | SRTP[pS]LPTPPTRE (also: fluorescein (FITC) label, position not given here) [Fluorescein-labelled mono-phospho-Tau pS214 peptide]
> 100 µM | VTSKCG[pS]LGNIHHK (also: fluorescein (FITC) label, position not given here) [Fluorescein-labelled mono-phospho-Tau pS324 peptide]
